Article PMC10035508

Target: PTBP1 (hsPTBP1) (Homo sapiens) (UniProt P26599)
Test: EMSA
Conditions: EMSA in RBB: 10 mM sodium cacodylate pH 7.0, 100 mM NaCl, 1 mM MgCl2, 1 mM DTT, 0.1 ug/uL BSA, 0.1 ug/uL yeast tRNA, 0.4 U/uL RNasin, 1 U/uL heparin …

Chain of PTBP1 (hsPTBP1) (Homo sapiens) (P26599 whole entry): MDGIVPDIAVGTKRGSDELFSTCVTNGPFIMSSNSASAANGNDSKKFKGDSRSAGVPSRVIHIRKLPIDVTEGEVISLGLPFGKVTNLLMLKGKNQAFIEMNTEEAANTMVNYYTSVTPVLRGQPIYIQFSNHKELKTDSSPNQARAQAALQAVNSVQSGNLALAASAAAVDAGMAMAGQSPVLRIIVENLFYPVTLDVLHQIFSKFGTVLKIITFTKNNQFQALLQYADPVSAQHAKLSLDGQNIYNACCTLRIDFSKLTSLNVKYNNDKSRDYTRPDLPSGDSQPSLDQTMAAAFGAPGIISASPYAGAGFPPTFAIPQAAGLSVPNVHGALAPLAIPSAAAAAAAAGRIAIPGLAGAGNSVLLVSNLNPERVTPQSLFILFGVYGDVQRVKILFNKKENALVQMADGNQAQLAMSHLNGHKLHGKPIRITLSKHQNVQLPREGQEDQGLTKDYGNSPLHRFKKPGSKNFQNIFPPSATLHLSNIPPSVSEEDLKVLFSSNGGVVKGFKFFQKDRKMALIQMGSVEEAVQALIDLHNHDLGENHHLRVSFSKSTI

Sequence	binding
GGGGUUCCUCCCCUCCAUCUUCCCACACCCAGUCACCAGCACUGUAUUUUCUGUCACCAAGACAAUGAUUUCUUGUUAUUGAGGCUGUUGCUUUUGUGGAUGUG [CPA1]	no binding
GGGUCUCCUUUCAGCCUGCUUCAGGAAUGAGCUUGUGGAGCCCCGGAGAGAAACUCCAAAACAAUCUGACGUCUUCUUUAGACAUUCCAAGCCCCCAAACCGAUCAGUGUAC [FRAGT7]	no binding
